Laboratory results from patent publication US20170232104A1.

Key:
[1] = target: 28mer peptide of the CXCR5 antigen; experiment: antigen ELISA; PBS 155 mM, 1 h purged with air, 24 h +40C
[2] = target: 28mer peptide of the CXCR5 antigen; experiment: antigen ELISA; 100 mg/mL formulation, +5C, 15 months
[3] = target: 28mer peptide of the CXCR5 antigen; experiment: antigen ELISA; 100 mg/mL formulation, +25C, 3 months
[4] = target: 28mer peptide of the CXCR5 antigen; experiment: antigen ELISA; 100 mg/mL formulation, +5C, 3 months
[5] = target: 28mer peptide of the CXCR5 antigen; experiment: antigen ELISA; PBS 155 mM, clear glass type I, 24 h +40C
[6] = target: 28mer peptide of the CXCR5 antigen; experiment: antigen ELISA; 100 mg/mL formulation, +5C, initial
[7] = target: 28mer peptide of the CXCR5 antigen; experiment: antigen ELISA; 100 mg/mL formulation, +5C, 6 months
[8] = target: 28mer peptide of the CXCR5 antigen; experiment: antigen ELISA; acetate pH 5.5 prototype D, 20 mg/mL, T0
[9] = target: 28mer peptide of the CXCR5 antigen; experiment: antigen ELISA; 100 mg/mL formulation, -20C, 6 months
[10] = target: 28mer peptide of the CXCR5 antigen; experiment: antigen ELISA; 100 mg/mL formulation, +5C, 12 months
[11] = target: 28mer peptide of the CXCR5 antigen; experiment: antigen ELISA; PBS 155 mM, clear glass type I as T0, 24 h +40C
[12] = target: 28mer peptide of the CXCR5 antigen; experiment: antigen ELISA; histidine pH 5.0 prototype A, 20 mg/mL, T0
[13] = target: 28mer peptide of the CXCR5 antigen; experiment: antigen ELISA; 100 mg/mL formulation, -20C, 3 months
[14] = target: 28mer peptide of the CXCR5 antigen; experiment: antigen ELISA; 100 mg/mL formulation, +25C, 1 month
[15] = target: 28mer peptide of the CXCR5 antigen; experiment: antigen ELISA; citrate pH 6.0 prototype B, 20 mg/mL, T0
[16] = target: 28mer peptide of the CXCR5 antigen; experiment: antigen ELISA; PBS 155 mM, light stress, 24 h +40C
[17] = target: 28mer peptide of the CXCR5 antigen; experiment: antigen ELISA; PBS 155 mM, polypropylene, 24 h +40C
[18] = target: 28mer peptide of the CXCR5 antigen; experiment: antigen ELISA; histidine pH 5.0 prototype B (table title LA_09_029B), 20 mg/mL, T0
[19] = target: 28mer peptide of the CXCR5 antigen; experiment: antigen ELISA; acetate pH 5.5 prototype C, 20 mg/mL, T0
[20] = target: 28mer peptide of the CXCR5 antigen; experiment: antigen ELISA; 100 mg/mL formulation, -20C, 1 month
[21] = target: 28mer peptide of the CXCR5 antigen; experiment: antigen ELISA; 100 mg/mL formulation, +25C, initial
[22] = target: 28mer peptide of the CXCR5 antigen; experiment: antigen ELISA; 100 mg/mL formulation, +5C, 18 months
[23] = target: 28mer peptide of the CXCR5 antigen; experiment: antigen ELISA; 100 mg/mL formulation, +5C, 1 month
[24] = target: 28mer peptide of the CXCR5 antigen; experiment: antigen ELISA; 100 mg/mL formulation, +25C, 6 months
[25] = target: 28mer peptide of the CXCR5 antigen; experiment: antigen ELISA; 100 mg/mL formulation, +5C, 9 months
[26] = target: 28mer peptide of the CXCR5 antigen; experiment: antigen ELISA; histidine pH 5.0 prototype D, 20 mg/mL, T0
[27] = target: 28mer peptide of the CXCR5 antigen; experiment: antigen ELISA; 100 mg/mL formulation, -20C, 12 months
[28] = target: 28mer peptide of the CXCR5 antigen; experiment: antigen ELISA; 100 mg/mL formulation, -20C, 18 months
[29] = target: 28mer peptide of the CXCR5 antigen; experiment: antigen ELISA; citrate pH 6.0 prototype C, 20 mg/mL, T0
[30] = target: 28mer peptide of the CXCR5 antigen; experiment: antigen ELISA; 100 mg/mL formulation, -20C, initial
[31] = target: 28mer peptide of the CXCR5 antigen; experiment: antigen ELISA; 100 mg/mL formulation, -20C, 9 months

B1: Lead CXCR5 Antibody (humanized IgG4 anti-CXCR5 antibody) (antibody, V domains shown)
VH: QVQLKESGPGLVAPSESLSITCTVSGFSLIDYGVNWIRQPPGKGLEWLGVIWGDGTTYYNPSLKSRLSISKDNSKSQVFLKVTSLTTDDTAMYYCARIVYWGQGTLVTVSA
VL: DIVMTQAAPSVAVTPGASVSISCRSSKSLLHSSGKTYLYWFLQRPGQSPQLLIYRLSSLASGVPDRFSGSGSGTAFTLRISRVEAEDVGVYYCMQHLEYPYTFGGGTKLEIKR
**Q.** With B1 as the binder, how does the EC50% [1] read?
**A.** The EC50% was 84.3%.

**Q.** What about the Potency (Antigen ELISA) EC50 value (in comparison to reference) [2] of the same binder?
**A.** Its Potency (Antigen ELISA) EC50 value (in comparison to reference) is 114%.

**Q.** And the Potency (Antigen ELISA) EC50 value (in comparison to reference) [3]?
**A.** Its Potency (Antigen ELISA) EC50 value (in comparison to reference) is 96%.

**Q.** And the Potency (Antigen ELISA) EC50 value (in comparison to reference) [4]?
**A.** The Potency (Antigen ELISA) EC50 value (in comparison to reference) was 95%.

**Q.** What about the EC50% [5] of the same binder?
**A.** The EC50% was 131%.

**Q.** What about the Potency (Antigen ELISA) EC50 value (in comparison to reference) [6] of the same binder?
**A.** The Potency (Antigen ELISA) EC50 value (in comparison to reference) was 75%.

**Q.** And the Potency (Antigen ELISA) EC50 value (in comparison to reference) [7]?
**A.** The Potency (Antigen ELISA) EC50 value (in comparison to reference) was 97%.

**Q.** What about the EC50% [8] of the same binder?
**A.** Its EC50% is 91%.

**Q.** And the Potency (Antigen ELISA) EC50 value (in comparison to reference) [9]?
**A.** Its Potency (Antigen ELISA) EC50 value (in comparison to reference) is 96%.

**Q.** And the Potency (Antigen ELISA) EC50 value (in comparison to reference) [10]?
**A.** Its Potency (Antigen ELISA) EC50 value (in comparison to reference) is 93%.

**Q.** What about the EC50% [11] of the same binder?
**A.** The EC50% was 62.3%.

**Q.** And the EC50% [12]?
**A.** Its EC50% is 174%.

**Q.** And the Potency (Antigen ELISA) EC50 value (in comparison to reference) [13]?
**A.** Its Potency (Antigen ELISA) EC50 value (in comparison to reference) is 84%.

**Q.** And the Potency (Antigen ELISA) EC50 value (in comparison to reference) [14]?
**A.** The Potency (Antigen ELISA) EC50 value (in comparison to reference) was 121%.

**Q.** What about the EC50% [15] of the same binder?
**A.** Its EC50% is 104%.

**Q.** And the EC50% [16]?
**A.** The EC50% was 72.3%.

**Q.** And the EC50% [17]?
**A.** Its EC50% is 107%.

**Q.** What about the EC50% [18] of the same binder?
**A.** Its EC50% is 118%.

**Q.** What about the EC50% [19] of the same binder?
**A.** The EC50% was 142%.

**Q.** And the Potency (Antigen ELISA) EC50 value (in comparison to reference) [20]?
**A.** The Potency (Antigen ELISA) EC50 value (in comparison to reference) was 107%.

**Q.** What about the Potency (Antigen ELISA) EC50 value (in comparison to reference) [21] of the same binder?
**A.** The Potency (Antigen ELISA) EC50 value (in comparison to reference) was 75%.

**Q.** What about the Potency (Antigen ELISA) EC50 value (in comparison to reference) [22] of the same binder?
**A.** Its Potency (Antigen ELISA) EC50 value (in comparison to reference) is 119%.

**Q.** What about the Potency (Antigen ELISA) EC50 value (in comparison to reference) [23] of the same binder?
**A.** The Potency (Antigen ELISA) EC50 value (in comparison to reference) was 105%.

**Q.** What about the Potency (Antigen ELISA) EC50 value (in comparison to reference) [24] of the same binder?
**A.** Its Potency (Antigen ELISA) EC50 value (in comparison to reference) is 104%.

**Q.** And the Potency (Antigen ELISA) EC50 value (in comparison to reference) [25]?
**A.** Its Potency (Antigen ELISA) EC50 value (in comparison to reference) is 92%.

**Q.** And the EC50% [26]?
**A.** Its EC50% is 169%.

**Q.** And the Potency (Antigen ELISA) EC50 value (in comparison to reference) [27]?
**A.** The Potency (Antigen ELISA) EC50 value (in comparison to reference) was 96%.

**Q.** What about the Potency (Antigen ELISA) EC50 value (in comparison to reference) [28] of the same binder?
**A.** Its Potency (Antigen ELISA) EC50 value (in comparison to reference) is 127%.

**Q.** And the EC50% [29]?
**A.** Its EC50% is 104%.

**Q.** What about the Potency (Antigen ELISA) EC50 value (in comparison to reference) [30] of the same binder?
**A.** Its Potency (Antigen ELISA) EC50 value (in comparison to reference) is 75%.

**Q.** And the Potency (Antigen ELISA) EC50 value (in comparison to reference) [31]?
**A.** The Potency (Antigen ELISA) EC50 value (in comparison to reference) was 101%.
